Experimental data taken from PMC2760398.

Assays:
[1] = biological target: FKBP12-TEVct (118/119 sTEVp, C-terminal TEVp fragment fused to FKBP12) (not stated | tobacco etch virus); details: scale: % of the median FRET efficiency of control cells
[2] = biological target: C34V-FKBP12-TEVct (not stated | tobacco etch virus); details: scale: % of the median FRET efficiency of control cells
[3] = biological target: Lyn11-FKBP12-sTEVp-CT (membrane-targeted FKBP12-TEVct of pBud-mem-sTEVp) (not stated | tobacco etch virus); details: scale: % of the median FRET efficiency of control cells
[4] = biological target: FKBP12-TEVct (118/119 sTEVp, C-terminal TEVp fragment fused to FKBP12) (not stated | tobacco etch virus); details: scale: % of the median FRET efficiency of control cells; remark: listed apart in the source
[5] = biological target: FKBP12-TEVct (118/119 sTEVp, C-terminal TEVp fragment fused to FKBP12) (not stated | tobacco etch virus); details: scale: % of the median FRET efficiency of control cells; remark: listed apart in the source
[6] = biological target: FKBP12-TEVct (118/119 sTEVp, C-terminal TEVp fragment fused to FKBP12) (not stated | tobacco etch virus); details: scale: % of the median FRET efficiency of control cells; remark: listed apart in the source
[7] = biological target: Lyn11-FKBP12-sTEVp-CT (membrane-targeted FKBP12-TEVct of pBud-mem-sTEVp) (not stated | tobacco etch virus)
[8] = biological target: Lyn11-FKBP12-sTEVp-CT (membrane-targeted FKBP12-TEVct of pBud-mem-sTEVp) (not stated | tobacco etch virus); details: scale: % of the median FRET efficiency of control cells; remark: listed apart in the source

FRB-TEVnt (118/119 sTEVp, N-terminal TEVp fragment fused to FRB) (from UniProt P42346 2018-2114)
TEVp activity by fragment complementation: median FRET efficiency of the substrate C34V in HeLa cells, 450 ng of each 118/119 sTEVp plasmid, 100 nM rapamycin for 3 hours at 37°C [1]: 3 | background TEVp activity: median FRET efficiency of the substrate C34V in HeLa cells, 450 ng of each 118/119 sTEVp plasmid, without rapamycin [1]: 83 | background TEVp activity in cis: median FRET efficiency of C34V-FKBP12-TEVct (300 ng) in HeLa cells with 25 ng FRB-TEVnt, without rapamycin (significant decrease at 25 ng FRB-TEVnt and above) [2]: 84 | inducible TEVp activity in cis: median FRET efficiency of C34V-FKBP12-TEVct (300 ng) in HeLa cells with 25 ng FRB-TEVnt, rapamycin for 3 hours (significant reduction also at 12 and 100 ng FRB-TEVnt) [2]: 0 | background TEVp activity: median FRET efficiency of soluble C34V (100 ng) in HeLa cells, 300-1000 ng pBud-mem-sTEVp, without rapamycin (no significant difference from control) [3]: 100 | inducible TEVp activity: median FRET efficiency of soluble C34V (100 ng) in HeLa cells, 300-1000 ng pBud-mem-sTEVp, rapamycin (30% at 300 ng, 12% at 1000 ng) [3]: 30 | TEVp activity by fragment complementation: median FRET efficiency of the substrate C34V in HeLa cells, 125 ng sTEVp, rapamycin for 3 hours [4]: 3 | background TEVp activity: median FRET efficiency of the substrate C34V in HeLa cells, 125 ng sTEVp (optimum of a titration of the plasmid mass from 40 ng upwards), without rapamycin [4]: 96 | background TEVp activity: median FRET efficiency of membrane-targeted mem-C34V (100 ng) in HeLa cells, 300-1000 ng pBud-sol-sTEVp, without rapamycin (98% at 300 ng, 89% at 1000 ng) [5]: 98 | inducible TEVp activity: median FRET efficiency of membrane-targeted mem-C34V (100 ng) in HeLa cells, 300-1000 ng pBud-sol-sTEVp, rapamycin (7% at 300 ng, 3% at 1000 ng) [5]: 7 | background TEVp activity: median FRET efficiency of soluble C34V (100 ng) in HeLa cells, 300-1000 ng pBud-sol-sTEVp, without rapamycin (97% at 300 ng, 84% at 1000 ng) [6]: 97 | inducible TEVp activity: median FRET efficiency of soluble C34V (100 ng) in HeLa cells, 300-1000 ng pBud-sol-sTEVp, 100 nM rapamycin for 3 hours (9% at 300 ng, 3% at 1000 ng) [6]: 9 | inducible TEVp activity: median degree of current inactivation 1-(I95ms/Imax) of EGFP-KV3.4 (1 µg RNA) in HEK-293 cells, 1-3 µg pBud-mem-sTEVp, rapamycin (0.31 at 1 µg, 0.53 at 3 µg) [7]: 0.53 | background TEVp activity: median FRET efficiency of membrane-targeted mem-C34V in HeLa cells, 300-1000 ng pBud-mem-sTEVp, without rapamycin (56% at 300 ng, 46% at 1000 ng) [8]: 56 | inducible TEVp activity: median FRET efficiency of membrane-targeted mem-C34V in HeLa cells, 300-1000 ng pBud-mem-sTEVp, rapamycin for 3 hours [8]: < 4
